Where “and” joins values, the source holds several entries; their conditions need not be identical. Equal entries are not always repeated.

For assay [1], the target named is SARS-CoV-2 Spike Protein (RBD)(R319-F541).hFc (SARS-CoV-2). The assay is described as follows: Luminex, supernatant.
Assay [2] concerns the target SARS-CoV-2 Spike Protein (RBD)(R319-F541).mFc (SARS-CoV-2). The assay is described as follows: Luminex, supernatant.
Assay [3] addresses receptor binding domain (RBD) portion of the SARS-CoV-2 Spike protein (amino acids Arg319-Phe541) ex (SARS-CoV-2).

B1: mAb10932 (antibody, V domains shown)
VH: EVQLVESGGGLVQSGGSLRLSCAASGLTVSSNYMSWVRQAPGKGLEWVSVIYSGGSTFYSDSVKGRFTISRHNSKNTLYLQMNSLRAEDTAVYYCARARGDAFDIWGQGTMVTVSS
VL: not shown
On to B1, for which the MFI in assay [1] and in assay [2] was 30600 MFI in each case.

B2: mAb10965 (antibody, V domains shown)
VH: EVQLVESGGGLIQPGGSLRLSCAASVFTVSYNYMSWVRQAPGKGLEWVSVIYSGGSTYYADSVKGRFTISRDNSKNTLYLQMNSLRAEDTAVYYCARALPGWGGSFEYFDYWGQGTLVTVSS
VL: not shown
Take B2: the concentration for half-maximal inhibition (IC50) in assay [3] stood at 213 pM.

B3: mAb10984 (antibody, V domains shown)
VH: EVQLVESGGGLVQPGGSLRLSCAASGLTVNRNYMSWVRQAPGKGLEWVSLIYSGGSTYYADSVKGRFTISRDNSKNTLYLQMNSLRLEDTAVYYCARGELGIPYGMDVWGQGTTVTVSS
VL: QSVLTQPPSVSAAPGQKVTISCSGSSSNIGNNYVSWYQQLPGTAPKLLIYDNNKRPSGIPDRFSGSKSGTSATLGITGLQTGDEADYYCGTWDSSLSAGVFGGGTKLTVLG
For the molecule B3, the IC50 in assay [3] was found to be 77.5 pM. This IC50 is about 2.7-fold lower than that of the molecule before.

B4: mAb10998 (antibody, V domains shown)
VH: EVQLVESGGGLVHPGGSLRLSCAASGLTVSSNYMSWVRQAPGKGLEWVSVIYSGGSTYYADSVKGRFTISRHNSKNTLFLQMNSLRAEDTAVYYCARDRPITGTTLDVWGQGTTVTVSS
VL: DIQMTQSPSSLFASVGDRVTITCRASQSISSYLNWYQQKPGKAPKLLIYAASSLQSGVPSRFSGSGSGTDFTLTISSLQPEDFAFYYCQQTYSTPPITFGQGTRLEIKR
With B4, in assay [3], the IC50 came out at 4300 pM.

B5: mAb10989 (antibody, V domains shown)
VH: QVQLVQSGAEVKKPGASVKVSCKASGYIFTGYYMHWVRQAPGQGLEWMGWINPNSGGANYAQKFQGRVTLTRDTSITTVYMELSRLRFDDTAVYYCARGSRYDWNQNNWFDPWGQGTLVTVSS
VL: QSALTQPASVSGSPGQSITISCTGTSSDVGTYNYVSWYQQHPGKAPKLMIFDVSNRPSGVSDRFSGSKSGNTASLTISGLQAEDEADYYCSSFTTSSTVVFGGGTKLTVLG
Take B5: the MFI in assay [1] came to 22400 MFI; in assay [2] it was 19600 MFI.

B6: mAb10956 (antibody, V domains shown)
VH: EVQLVESGGGLVQPGGSLRLSCAASGLTVSSNYMSWVRQAPGKGLEWVSVIYSGGSTFYADSVKGRFTISRDNSKNTLYLQMNSLRAEDTAVYYCARDLIKYGMDVWGQGTTVTVSS
VL: not shown
In assay [3], B6 had an IC50 of 185 pM. In other words, the sub-nanomolar range.

B7: mAb10957 (antibody, V domains shown)
VH: EVQLVESGGGLVQPGGSLRLSCAASGVTVSSNYMSWVRQAPGKGLEWVSVIYSGGSTFYADSVKGRFTISRDNSKNTLFLQMNSLRIEDTAVYYCARDLGPYGMDVWGQGTTVTVSS
VL: DIQLTQSPSFLSASVGDRVTITCRASQGISSYLAWYQQKPGKAPKLLIYAASTLQSGVPSRFSGSGSGTQFILTISSLQPEDFATYYCQQLNSYPGFTFGPGTKVDIKR
B7 showed an IC50 in assay [3] of 169 pM.

B8: mAb10971 (antibody, V domains shown)
VH: EVQLVESGGGLIQPGGSLRLSCAASGVTVSSNYMSWVRQAPGKGLEWVSVIYSGGSTFYSDSVKGRFSISRDNSKNTLYLQMNSLRAEDTAVYYCARDLYYYGMDVWGQGTTVTVSS
VL: DIQLTQSPSFLSASVGDRVTITCRASQGISTYLAWYQQKPGKAPKLLIYAASTLQSGVPSRFSGSGSGTEFTLTISSLQPEDFATYYCQQLDSYPGLTFGGGTKVEIKR
In assay [3], B8 had an IC50 of 149 pM.

B9: mAb10971 (antibody, V domains shown)
VH: EVQLVESGGGLIQPGGSLRLSCAASGVTVSSNYMSWVRQAPGKGLEWVSVIYSGGSTFYSDSVKGRFSISRDNSKNTLYLQMNSLRAEDTAVYYCARDLYYYGMDVWGQGTTVTVSS
VL: DIQLTQSPSFLSASVGDRVTITCRASQGISTYLAWYQQKPGKAPKLLIYAASTLQSGVPSRFSGSGSGTEFTLTISSLQPEDFATYYCQQLDSYPGLTFGGGTKVEIKR
In the case of B9, the MFI in assay [1] turned out to be 30000 MFI; in assay [2] it was 28700 MFI.

B10: mAb10939 (antibody, V domains shown)
VH: EVQLVESGGGLVQPGGSLRLSCAASGLTVSSNYMNWVRQVPGKGLEWVSVIYSGGSKFYVDSVKGRFTISRHNSKNTLYLQMNSLRPEDTAVYYCTRDAQYYGMDVWGQGTTVTVSS
VL: DIQMTQSPSSLSASVGDRVTITCRASQSISTYLHWYQQKPGEAPKLLIYAASSLQSGVPSRFSGSGSGTDFTLTISSLQPEDFATYYCQQSYSTPPEIFGQGTKLEIKR
With B10, the MFI was found to be 32900 MFI in assay [1] and 33900 MFI in assay [2].

B11: mAb10982 (antibody, V domains shown)
VH: EVQLVESGGGLVQPGGSLRLSCAASGLTVSSNYMSWVRQAPGKGLEWVSVIYSGGTTYYADSVKGRFTISRHNSKNTLSLQMNSLRAEDTAVYYCARGEGANYYGMDVWGQGTTVTVSS
VL: QSVLTQPPSVSGAPGQRVTISCTGSSSNIGTGYDVHWYQQLPGTAPKLLIYGNSNRPSGVPDRFSGSKSGTSASLAITGLQAEDEADYYCQSYDSSLSGYVVFGGGTKLTVLG
As to B11, the IC50 in assay [3] came to 116 pM. In other words, the sub-nanomolar range.

B12: mAb10986 (antibody, V domains shown)
VH: EVQLVESGGGLVQPGGSLRLSCAASEFTVSSNYMSWVRQAPGKGLEWVSVIYSGGSTFYADSVKGRFTISRDNSKNTLYLQMNSLRAEDTAVYYCARALPYGDLHFDYWGQGTLVTVSS
VL: QSVLTQPPSVSGAPGQRVTISCTGSSSNIGTGYDVHWYQQLPGTAPKLLIYGNTNRPSGVPDRFSGSKSGTSASLAITGLQAEDEADYYCQSYDSSLSDSYVFGTGTKVTVLG
Take B12: in assay [3], the IC50 came out at 75.4 pM.

B13: mAb10985 (antibody, V domains shown)
VH: EVQLVESGGGLVQPGRSLRLSCAASGFTFDDYAMHWVRQAPGKGLEWVSGISWNRGSIGYADSVKGRFTISRDNAKNSLYLQMSSLRAEDTALYYCAKDGERWDSVVVPSARNGMDVWGQGTTVTVSS
VL: QSVLTQPPSVSGAPGQRVTISCTGSSSNIGAGYDVHWYQQLPGTAPKLLIYGNSNRPSGVPDRFSGSKSGTSASLAITGLQAEDEADYYCQSYDSSLSGSYVFGTGTKVTVLG
In the case of B13, in assay [3], the IC50 is 69.6 pM and 41.1 pM.

B14: mAb10966 (antibody, V domains shown)
VH: EVQLVESGGGLVQPGGSLRLSCAASGLTVSSNYMSWVRQAPGKGLEWVSVIYSGGSTFYADSVKGRFTISRDNSKNTLYLQMNSLRPEDTAVYYCAREGRIAATGYGMDVWGQGTTVTVSS
VL: not shown
As for B14, the IC50 in assay [3] amounted to 160 pM.

B15: mAb11006 (antibody, V domains shown)
VH: EVQLVESGGGLVQPGGSLRLSCAASGFIVSRNYMSWVRQAPGKGLEWVSVIYSGGSTFYADSVKGRFTISRHNSKNTLYLQMNSLKAEDTAVYYCARELRGYFDYWGQGTLVTVSS
VL: DIQLTQSPSFLSASVGDRVTITCWASQGISSYLAWYQQKPGKAPKLLIYAASTLQSGVPSRFSGSGSGTEFTLTISSLQPEDFATYYCQLLNSYPYTFGQGTKLEIKR
Molecule B15 yielded an IC50 in assay [3] of 220 pM.

B16: mAb11008 (antibody, V domains shown)
VH: EVQLVESGGGLVQPGGSLRLSCAASGFTVSSNYMTWVRQAPGKGLEWVSVIYSGGSTFYADSVKGRFTISRHNSENTLYLQMNSLRAEDTAVYYCARDLAAAGTDYWGQGALVTVSS
VL: DIQLTQSPSFLSASVGDRVTITCWASQGISSYLAWYQQKPGKAPKLLIYAASTLQSGVPSRFSGSGSGTEFTLTISSLQPDDFATYYCQHLNSYLYTFGQGTKLEIKR
As to B16, the half-maximal inhibitory concentration (IC50) in assay [3] is 1490 pM.

B17: mAb10969 (antibody, V domains shown)
VH: QVQLVESGGGVVQPGRSLRLSCAASGFTFSSYAMHWVRQAPGKGLEWVAVISYDGSNKYYADSVKGRFTISRDNSKNTLYLQMNSLRAEDTAVYYCARDGRTITMVRGVIDDAFDIWGQGTMVTVSS
VL: not shown
B17 showed a half-maximal inhibitory concentration (IC50) in assay [3] of 215 pM.

B18: mAb10969 (antibody, V domains shown)
VH: QVQLVESGGGVVQPGRSLRLSCAASGFTFSSYAMHWVRQAPGKGLEWVAVISYDGSNKYYADSVKGRFTISRDNSKNTLYLQMNSLRAEDTAVYYCARDGRTITMVRGVIDDAFDIWGQGTMVTVSS
VL: not shown
On to B18, for which the MFI in assay [2] was 31400 MFI.

B19: mAb10955 (antibody, V domains shown)
VH: EVQLVESGGGLVQPGGSLRVSCAASGFTVSRNYMSWVRQAPGKGLEWVSVIYSGGSTFYADSVKGRFTISRDNSKNTLYLQMNSLRAEDTAIYYCARYIPRFDPWGQGTLVTVSS
VL: DIQMTQSPSSLSASVGDRVTITCQASQDISNYLNWFQQKPGRAPKLLIYDASNLETGVPSRFSGSGSGTDFTFTISSLQPEDIATYYCQQYDNLPITFGQGTRLEIKR
Regarding B19, in assay [3], the IC50 came out at 141 pM. This counts as sub-nanomolar.

B20: mAb10967 (antibody, V domains shown)
VH: EVQLVESGGGLVQPGGSLRLSCAASGFTVSSNYMSWVRQAPGKGLEWVSVIYPGGSTFYADSVKGRFTISRDNSKNTLYLQMNSLRAEDTAVYYCARDQRDFAWGQGTLVTVSS
VL: DIQMTQSPSSLSASVGDRVTITCQASQDISNYLNWYQQKPGKAPKLLIYDASNLETGVPSRFSGSGSGTDFTFTISGLQPEDIATYYCQQYDNLPPTFGQGTRLEIKR
Take B20: the IC50 in assay [3] stood at 280 pM.

B21: mAb11010 (antibody, V domains shown)
VH: QVQLVESGGGVVQPGRSLRLSCAASGFTFSSYGMHWVRQAPGKGLEWVAVISYDGSYKYYADSVKGRFTISRDNSKNTLYLQMNSLRAEDTAVYYCAIDGGTVTTIFDYWGQGTLVTVSS
VL: not shown
Turning to B21, in assay [3], the IC50 was 147 pM. This IC50 is about 1.9-fold lower than that of the molecule before.

B22: mAb10964 (antibody, V domains shown)
VH: QVQLQESGPGLVKPSETLSLTCTVSGGSINNYYWIWIRQPPGKGLEWIGYIYHSGSTNYNPSLKSRVTISVDTSKNQFSLKVSSVTAADTAVYYCANMVRGVYEDDYWGQGTLVTVSS
VL: DIQMTQSPSSLSASVGDRVTITCRASQSISNYLNWYQQKPGKAPKLLIFAASSLRSGVPSRFSGSGSGTDFTLTISSLHPEDFATYYCQQNYNTPLTFGPGTKVDIKR
For B22, in assay [3], the IC50 is 68.3 pM and 62.5 pM.

B23: mAb10964 (antibody, V domains shown)
VH: QVQLQESGPGLVKPSETLSLTCTVSGGSINNYYWIWIRQPPGKGLEWIGYIYHSGSTNYNPSLKSRVTISVDTSKNQFSLKVSSVTAADTAVYYCANMVRGVYEDDYWGQGTLVTVSS
VL: DIQMTQSPSSLSASVGDRVTITCRASQSISNYLNWYQQKPGKAPKLLIFAASSLRSGVPSRFSGSGSGTDFTLTISSLHPEDFATYYCQQNYNTPLTFGPGTKVDIKR
Turning to B23, the MFI in assay [1] worked out at 33100 MFI; in assay [2], 32400 MFI.
